Experimental data taken from article PMC9544432 (Proteins, 2021).
Changes are numbered by the printed parent chain. Where two headings read alike, the source gives them in different places.

Columns and labels:
Assay in all cases: SPR
VEGFR2(D2–3) D257A/E261A = molecular target: T1, VEGFR2(D2–3) D257A/E261A (human)
T1 chain: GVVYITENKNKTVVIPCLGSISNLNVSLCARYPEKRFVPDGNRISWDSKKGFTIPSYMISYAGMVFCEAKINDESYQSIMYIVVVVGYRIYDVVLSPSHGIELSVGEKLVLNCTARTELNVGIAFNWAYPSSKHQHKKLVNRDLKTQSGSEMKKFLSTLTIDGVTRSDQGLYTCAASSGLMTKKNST

[1] = molecular target: T2, VEGFR2(D2–3), domains 2 and 3 of the extracellular portion of human VEGFR2, wild type (human)
T2 chain: T1 chain with A124D, A128E

[2] = molecular target: T2, VEGFR2(D2–3), domains 2 and 3 of the …

B1: KD035 antigen-binding fragment (Fab) (Fab, V domains shown)
VH: EVQLLESGGGLVQPGGSLRLSCAASGFTFSWYVMGWVRQAPGKGLEWVSSIYPSGGATNYADSVKGRFTISRDNSKNTLYLQMNSLRAEDTAVYYCARGNYFDYWGQGTLVTVSS
VL: QSVLTQPPSVSVSPGQTASITCSGEKLGDEYASWYQQKPGQSPVLVIYQDNKRPSGIPERFSGSNSGNTATLTISGTQAMDEADYYCQAWDSSTLLFGGGTKLTVL
VEGFR2(D2–3) D257A/E261A
  Kd: 35.8 nM
[1]
  Kd: 1.3 nM
[2]
  Kd: 0.22 nM
